The values that follow come from paper doi:10.1101/2023.08.11.553033.

What is called Kd is the free concentration of one partner at which half of the binding sites on the other are occupied at equilibrium, for simple one-to-one binding.

Where two headings read alike, the source gives them in different places.

The target in data set [1] is T1, Pdr1p DBD (Saccharomyces cerevisiae, UniProt P12383 1-207).
T1 sequence: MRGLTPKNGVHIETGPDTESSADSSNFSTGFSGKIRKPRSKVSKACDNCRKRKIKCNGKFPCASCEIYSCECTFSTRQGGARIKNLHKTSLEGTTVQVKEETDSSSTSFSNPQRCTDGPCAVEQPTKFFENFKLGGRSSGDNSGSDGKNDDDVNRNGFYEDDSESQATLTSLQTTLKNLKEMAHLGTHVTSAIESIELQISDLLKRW
The data set can be described thus: fluorescence polarization. Background: Fluorescence polarisation rises when a labelled molecule tumbles more slowly, as on binding a larger partner.

Data set [2] addresses T2, Pdr3p DBD (Saccharomyces cerevisiae, UniProt P33200 1-184).
T2 sequence: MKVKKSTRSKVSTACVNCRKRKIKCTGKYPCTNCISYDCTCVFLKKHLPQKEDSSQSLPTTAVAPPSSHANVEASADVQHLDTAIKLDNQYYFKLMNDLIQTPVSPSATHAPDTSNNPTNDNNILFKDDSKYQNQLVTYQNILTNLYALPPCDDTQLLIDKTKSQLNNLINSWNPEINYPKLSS
The experiment in a line: fluorescence polarization.

For data set [3], the target named is T1, Pdr1p DBD. The data set can be described thus: competition fluorescence polarization.
Data set [4] concerns the target T2, Pdr3p DBD. The experiment in a line: competition fluorescence polarization.
Data set [5] concerns the target T1, Pdr1p DBD. The data set can be described thus: competition fluorescence polarization. This is another data set of the same source.
The target in data set [6] is T2, Pdr3p DBD. The data set can be described thus: competition fluorescence polarization. The source holds these as a separate data set.
Data set [7] addresses T1, Pdr1p DBD. The data set can be described thus: competition fluorescence polarization. The source holds these as a separate data set.
Data set [8] addresses T2, Pdr3p DBD. The data set can be described thus: competition fluorescence polarization. This is another data set of the same source.
In data set [9] the target is T1, Pdr1p DBD. The data set can be described thus: competition fluorescence polarization. This is another data set of the same source.

B1: PBM half site 18mer (dsDNA)
DNA 1: AAAAGTTCCGGAACAACC
DNA 2: GGTTGTTCCGGAACTTTT
Turning to B1, the Kd with Pdr1p DBD [1] came out at 229 nM; in the data set with Pdr3p DBD [2], 118 nM.

B2: PDR5_4 C4A G4T G14A (paper numbering) (dsDNA)
DNA 1: AAAATTCCGTGGAAAACC
DNA 2: GGTTTTCCACGGAATTTT
Consider B2, for which the binding result with Pdr1p DBD [3] and with Pdr3p DBD [4] was “binds” each time.

B3: PBM half site TTCAAGAA (dsDNA)
DNA 1: AAAAGTTCAAGAACAACC
DNA 2: GGTTGTTCTTGAACTTTT
With B3, the binding signal in the data set with Pdr1p DBD [5] is 30 fold lower affinity than PBM half site; with Pdr3p DBD [6] it was 2.5 fold lower affinity than PBM half site.

B4: PBM half site TTCCGAAA (dsDNA)
DNA 1: AAAAGTTCCGAAACAACC
DNA 2: GGTTGTTTCGGAACTTTT
Consider B4, for which the binding result with Pdr1p DBD [7] and with Pdr3p DBD [8] was “binds” throughout.

B5: PDR5_4 G4T G14A (paper numbering) (dsDNA)
DNA 1: AAACTTCCGTGGAAAACC
DNA 2: GGTTTTCCACGGAAGTTT
As for B5, in the data set with Pdr1p DBD [9], the binding result is given as “binds”.
